Each binder was assayed against T1, HLA-A*02:01 (human) (assay: UV-ligand exchange, anti-β2m ELISA; grade of peptide exchange yield).
T1 construct: the tested peptide takes its place; also called peptide-receptive MHC molecules; MHC class I
Excerpt: Candidate peptides for T cell based therapies according to the present invention were further tested for their MHC binding capacity (affinity). The individual peptide-MHC complexes were produced by UV-ligand exchange, where a UV-sensitive peptide is cleaved upon UV-irradiation, and exchanged with the peptide of interest as analyzed. Only peptide candidates that can effectively bind and stabilize the peptide-receptive MHC molecules prevent dissociation of the MHC complexes. To determine the yield of the exchange reaction, an ELISA was performed based on the detection of the light chain (β2m) of stabilized MHC complexes. The assay was performed as generally described in Rodenko et al. (Rodenko et al., 2006).
96 well MAXISorp plates (NUNC) were coated over night with 2 ug/ml streptavidin in PBS at room temperature, washed 4× and blocked for 1h at 37° C. in 2% BSA containing blocking buffer. Refolded HLA-A*02:01/MLA-001 monomers served as standards, covering the range of 15-500 ng/ml. Peptide-MHC monomers of the UV-exchange reaction were diluted 100 fold in blocking buffer. Samples were incubated for 1 h at 37° C., washed four times, incubated with 2 ug/ml HRP conjugated anti-β2m for 1h at 37° C., washed again and detected with TMB solution that is stopped with […]. Absorption was measured at 450 nm. Candidate peptides that show a high exchange yield (preferably higher than 50%, most preferred higher than 75%) are generally preferred for a generation and production of antibodies or fragments thereof, and/or T cell receptors or fragments thereof, as they show sufficient avidity to the MHC molecules and prevent dissociation of the MHC complexes.

Row | peptide exchange yield | Binder
1 | 20 to 50% | FLNPDEVHAI [FLNPDEVHAI (SEQ ID NO: 37)]
2 | 20 to 50% | LLDGFPRTV [LLDGFPRTV (SEQ ID NO: 49)]
3 | 50 to 75% | ILYSDDGQKWTV [ILYSDDGQKWTV (SEQ ID NO: 45)]
4 | 20 to 50% | KLDSSGGAVQL [KLDSSGGAVQL (SEQ ID NO: 23)]
5 | 20 to 50% | FLEDDDIAAV [FLEDDDIAAV (SEQ ID NO: 34)]
6 | 20 to 50% | GLAPQIHDL [GLAPQIHDL (SEQ ID NO: 40)]
7 | 50 to 75% | TMVEHNYYV [TMVEHNYYV (SEQ ID NO: 46)]
8 | 20 to 50% | YVDDGLISL [YVDDGLISL (SEQ ID NO: 32)]
9 | 50 to 75% | ILIGETIKI [ILIGETIKI (SEQ ID NO: 3)]
10 | 20 to 50% | FLGDLSHLL [FLGDLSHLL (SEQ ID NO: 36)]
11 | ≥ 75% | YILPFSEVL [YILPFSEVL (SEQ ID NO: 29)]
12 | 20 to 50% | YIYKDTIQV [YIYKDTIQV (SEQ ID NO: 30)]
13 | 20 to 50% | KLSENAGIQSL [KLSENAGIQSL (SEQ ID NO: 24)]
14 | 50 to 75% | VLDEFYSSL [VLDEFYSSL (SEQ ID NO: 28)]
15 | 20 to 50% | GLLAGNEKLTM [GLLAGNEKLTM (SEQ ID NO: 41)]
16 | 20 to 50% | HLGVKVFSV [HLGVKVFSV (SEQ ID NO: 43)]
17 | 20 to 50% | FLTPSIFII [FLTPSIFII (SEQ ID NO: 39)]
18 | 50 to 75% | ILSTEIFGV [ILSTEIFGV (SEQ ID NO: 22)]
19 | 20 to 50% | LINPNIATV [LINPNIATV (SEQ ID NO: 25)]
20 | 50 to 75% | TLLAHPVTL [TLLAHPVTL (SEQ ID NO: 27)]
21 | 50 to 75% | ILAQVGFSV [ILAQVGFSV (SEQ ID NO: 44)]
22 | 50 to 75% | ALDPAAQAFLL [ALDPAAQAFLL (SEQ ID NO: 4)]
23 | 50 to 75% | ILSDMRSQYEV [ILSDMRSQYEV (SEQ ID NO: 42)]
24 | 50 to 75% | YLDSMYIML [YLDSMYIML (SEQ ID NO: 31)]
25 | 50 to 75% | LLDENGVLKL [LLDENGVLKL (SEQ ID NO: 48)]
26 | 50 to 75% | GLVDGRDLVIV [GLVDGRDLVIV (SEQ ID NO: 21)]
27 | 50 to 75% | LIYKDLVSV [LIYKDLVSV (SEQ ID NO: 47)]
28 | 50 to 75% | FLFPSQYVDV [FLFPSQYVDV (SEQ ID NO: 35)]
29 | 50 to 75% | SLYTALTEA [SLYTALTEA (SEQ ID NO: 26)]
30 | 50 to 75% | FLTEAALGDA [FLTEAALGDA (SEQ ID NO: 38)]
